Results on two molecules are retold here after paper PMC11430298, “Complexes of HMO1 with DNA: Structure and Affinity”.

The data set deals with T1, HMO1 (Saccharomyces cerevisiae, UniProt Q03973 1-246).
T1 sequence: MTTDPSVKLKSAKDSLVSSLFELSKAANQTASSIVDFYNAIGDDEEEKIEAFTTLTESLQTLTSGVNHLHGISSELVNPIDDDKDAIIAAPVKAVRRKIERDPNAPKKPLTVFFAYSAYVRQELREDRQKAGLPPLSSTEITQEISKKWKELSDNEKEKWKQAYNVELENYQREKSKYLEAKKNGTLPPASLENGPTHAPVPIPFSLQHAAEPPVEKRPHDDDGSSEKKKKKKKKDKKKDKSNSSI
The data set can be described thus: EMSA; apparent Kd from Hill fit of free DNA; 6 nM DNA; EMSA: 17 mM HEPES pH 7.6, 2 mM Tris-HCl, 0.8 mM Na3EDTA, 0.11 mM 2-mercaptoethanol, 11 mM NaCl, 1.1% glycerol, 12% sucrose; 6 nM DNA, 10-800 nM HMO1, 30 min at. As to conditions: protein: recombinant, tags: N-terminal His6 (pET15b), blunt. On the technique in general: In EMSA bound probe runs differently from free probe, usually more slowly.

B1: RO duplex (randomized sequence) (dsDNA)
DNA 1: CTATCGGCACACTTCACGGCACAC
DNA 2: GTGTGCCGTGAAGTGTGCCGATAG
Turning to B1, the Kd (label: 5'-Cy3 on strand 1 (S3)) was determined as 128 nM.

B2: SO duplex (IFHL site) (dsDNA)
DNA 1: ACTACGCTCTAGGCAGAGTTCACC
DNA 2: GGTGAACTCTGCCTAGAGCGTAGT
On to B2, for which the Kd (label: 5'-Cy3 on strand 2 (S6)) came to 62 nM.
